The supplement of paper PMC7877785
± gives the uncertainty stated by the source.

Experiment: self-splicing fitness, log relative to wild type (ln ratio); higher = more splicing; Tetrahymena group I intron in knt gene, E. coli kanamycin selection, DiMSum; sequences stand for … in CUCUCU…GGAGGGAAAAGUUAUCAGGCAUGCACCUGGUAGCUAGUCUUUAAACCAAUAGAUUGCAUCGGUUUAAAAGGCAAGACCGUCAAAUUGCGGGAAAGGGGUCAACAGCCGUUCAGUACCAAGUCUCAGGGGAAACUUUGAGAUGGCCUUGCAAAGGGUAUGGUAAUAAGCUGACGGACAUGGUCCUAACCACGCAGCCAAGUCCUAAGUCAACAGAUCUUCUGUUGAUAUGGAUGCAGUUCACAGACUAAAUGUCGGUCGGGGAAGAUGUAUUCUUCUCAUAAGAUAUAGUCGGACCUCUCCUUAAUGGGAGCUAGCGGAUGAAGUGAUGCAACACUGGAGCCGCUGGGAACUAAUUUGUAUGCGAAAGUAUAUUGAUUAGUUUUGGAGUACUCGUGGUCG
Summary of the method: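 Six replicate transformations of E. coli BL21(DE3) with a pET-22b(+) library were grown overnight at 37°C or 30°C. The library randomised all eight P1ex-region intron nucleotides, the intron lying in the knt kanamycin-resistance gene, and plates were LB agar with or without 25 μg/mL kanamycin plus 100 μg/mL carbenicillin, 50 μM IPTG and 0.2% rhamnose. Pooled colonies were amplicon-sequenced on an Illumina HiSeq 2500, and fitness is the DiMSum error-weighted combination of wild-type-normalised replicate fold changes, kanamycin versus none.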

Sequence	self-splicing fitness (ln) (30 °C)	self-splicing fitness (ln) (37 °C)
CCAAAGCAAUAUUACGGCAU	-3.72 ± 0.15	-2.23 ± 0.15
CCAAAGCAAUAUUACGGCUA	-4.05 ± 0.43	-2.28 ± 0.28
CCAAAGCAAUAUUACGGGAG	-3.08 ± 0.18	-2.78 ± 0.26
CCAAAGCAAUAUUACGGGAU	-3.6 ± 0.15	-2.37 ± 0.14
CCAAAGCAAUAUUACGUAAA	-3.24 ± 0.11	-2.07 ± 0.14
CCAAAGCAAUAUUACGUAAU	-4.12 ± 0.18	-2.62 ± 0.19
CCAAAGCAAUAUUACGUAGA	-3.5 ± 0.17	-2.55 ± 0.18
CCAAAGCAAUAUUACGUCAC	-4.61 ± 0.25	-2.14 ± 0.19
CCAAAGCAAUAUUACGUGAC	-4.61 ± 0.32	-2.12 ± 0.26
CCAAAGCAAUAUUACGUGUG	-1.33 ± 0.055	-0.624 ± 0.066
CCAAAGCAAUAUUACGUUAC	-3.75 ± 0.22	-3.75 ± 0.36
CCACAGCAAUAUUACGAAGU	-3.69 ± 0.18	-3.17 ± 0.21
CCACAGCAAUAUUACGAAUG	-1.11 ± 0.061	-0.833 ± 0.071
CCACAGCAAUAUUACGAUAC	-3.48 ± 0.24	-2.16 ± 0.22
CCACAGCAAUAUUACGAUGU	-4.02 ± 0.24	-1.89 ± 0.15
CCACAGCAAUAUUACGAUUG	-1.3 ± 0.05	-0.453 ± 0.067
CCACAGCAAUAUUACGCAUA	-3.46 ± 0.18	-2.42 ± 0.19
CCACAGCAAUAUUACGCCAU	-3.59 ± 0.2	-1.36 ± 0.21
CCACAGCAAUAUUACGCCUG	-1.51 ± 0.092	-0.296 ± 0.1
CCACAGCAAUAUUACGCGCC	-3.03 ± 0.29	–
CCACAGCAAUAUUACGGAGU	-3.32 ± 0.16	-1.32 ± 0.14
CCACAGCAAUAUUACGGCCG	-0.955 ± 0.073	0.0456 ± 0.1
CCACAGCAAUAUUACGGCCU	-3.94 ± 0.24	-3.38 ± 0.31
CCACAGCAAUAUUACGGGAG	-2.29 ± 0.14	-2.97 ± 0.19

Sequence	self-splicing fitness (ln) (30 °C)	self-splicing fitness (ln) (37 °C)
CCACAGCAAUAUUACGGUAA	-3 ± 0.14	-2.2 ± 0.18
CCACAGCAAUAUUACGUACU	-2.01 ± 0.12	-1.93 ± 0.19
CCACAGCAAUAUUACGUAGG	-2.62 ± 0.093	-2.18 ± 0.14
CCACAGCAAUAUUACGUAUU	-3.57 ± 0.15	-2.01 ± 0.14
CCACAGCAAUAUUACGUUAG	-1.56 ± 0.062	-0.188 ± 0.071
CCACAGCAAUAUUACGUUUU	-3.73 ± 0.16	-3.7 ± 0.22
CCAGAGCAAUAUUACGAGCU	-3.54 ± 0.34	-2.35 ± 0.45
CCAGAGCAAUAUUACGAGUU	-1.94 ± 0.14	-2.9 ± 0.27
CCAGAGCAAUAUUACGAUCG	-0.986 ± 0.11	-0.589 ± 0.14
CCAGAGCAAUAUUACGAUUG	-1.42 ± 0.11	-0.92 ± 0.14
CCAGAGCAAUAUUACGCGUU	-4.06 ± 0.23	-2.65 ± 0.18
CCAGAGCAAUAUUACGGAUC	-1.77 ± 0.32	–
CCAGAGCAAUAUUACGGCCG	-1.72 ± 0.16	-0.276 ± 0.31
CCAGAGCAAUAUUACGGCCU	-2.77 ± 0.13	-1.27 ± 0.17
CCAGAGCAAUAUUACGGCGC	-3.67 ± 0.25	-2 ± 0.26
CCAGAGCAAUAUUACGGCGG	-3.72 ± 0.18	-1.92 ± 0.24
CCAGAGCAAUAUUACGGGAG	-3.51 ± 0.23	-3.55 ± 0.3
CCAGAGCAAUAUUACGGUUA	-2.7 ± 0.18	-2.01 ± 0.25
CCAGAGCAAUAUUACGGUUU	-4.44 ± 0.39	-3.07 ± 0.32
CCAGAGCAAUAUUACGUACC	–	-2 ± 0.35
CCAGAGCAAUAUUACGUAUC	-2.62 ± 0.17	-1.73 ± 0.25
CCAGAGCAAUAUUACGUAUU	-3.91 ± 0.18	-2.41 ± 0.17
CCAGAGCAAUAUUACGUCAU	-3.64 ± 0.28	-2.81 ± 0.18
CCAGAGCAAUAUUACGUGCU	-3.37 ± 0.24	-3.56 ± 0.42
